Measurements reported in EP4471048A1, “PEPTIDE INHIBITORS OF INTERLEUKIN-23 RECEPTOR” (Zealand Pharma A/S, priority 2023, dated 2024).
Where two headings read alike, the source gives them in different places. *1 amine or outer side, *2 acyl side, *3 side chain or, on linkers, in order; H or OH if unused. Bridges are numbered along the chain shown (N, C = ends). [ ]: non-standard residue; d: D form. The star is where a group is joined. 4‑Aminomethyl‑phenylacetyl = 4-aminomethyl-phenylacetyl unit, its amine closes the lactam, O=C(Cc1ccc(CN[*:1])cc1)[*:2]; γDab = iso-Dab: Dab joined to preceding residue by its side-chain amine, O=C([C@H](CCN[*:1])N[*:3])[*:2]; Q(pyrrolidin) = modified Gln, O=C(CC[C@H](N[*:1])C(=O)[*:2])N1CCCC1; 2‑Amino‑6‑carboxyhexanoyl = 2-aminoheptanedioic acid residue; Propanoyl(3-(3-pyridyl)) = O=C(CCc1cccnc1)*; NH(4-(3-pyridyl)butyl) = c1cncc(CCCCN*)c1; Phe(4-Me) = Cc1ccc(C[C@H](N)C(=O)O)cc1; 2Nal = N[C@@H](Cc1ccc2ccccc2c1)C(=O)O; AEF = NCCOc1ccc(C[C@H](N)C(=O)O)cc1; 3Pal = N[C@@H](Cc1cccnc1)C(=O)O; β3hE = N[C@@H](CCC(=O)O)CC(=O)O; Aad = N[C@@H](CCCC(=O)O)C(=O)O; αMeL = CC(C)C[C@](C)(N)C(=O)O; dOrn = NCCC[C@@H](N)C(=O)O; dDab = NCC[C@@H](N)C(=O)O; Orn = NCCC[C@H](N)C(=O)O; Dab = NCC[C@H](N)C(=O)O

T1: human IL-23R endogenously expressed on DB cells (human, UniProt Q5VWK5 24-629)
T1 sequence (looked up): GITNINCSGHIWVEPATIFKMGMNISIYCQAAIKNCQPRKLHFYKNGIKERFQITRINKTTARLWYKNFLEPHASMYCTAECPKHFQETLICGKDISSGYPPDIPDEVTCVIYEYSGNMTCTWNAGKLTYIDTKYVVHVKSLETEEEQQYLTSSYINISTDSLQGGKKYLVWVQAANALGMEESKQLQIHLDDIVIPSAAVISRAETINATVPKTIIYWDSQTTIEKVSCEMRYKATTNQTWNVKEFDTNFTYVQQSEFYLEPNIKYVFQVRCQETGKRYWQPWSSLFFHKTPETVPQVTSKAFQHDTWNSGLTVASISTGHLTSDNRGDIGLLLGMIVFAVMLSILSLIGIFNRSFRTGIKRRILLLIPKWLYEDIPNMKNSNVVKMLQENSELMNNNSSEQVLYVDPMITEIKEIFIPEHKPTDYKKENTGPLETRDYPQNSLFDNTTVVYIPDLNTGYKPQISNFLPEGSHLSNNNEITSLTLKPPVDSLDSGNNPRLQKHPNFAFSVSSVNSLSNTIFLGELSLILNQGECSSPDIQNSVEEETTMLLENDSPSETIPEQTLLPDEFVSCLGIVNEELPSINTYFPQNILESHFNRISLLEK

T2: Nluc-IL23R fusion protein (human, UniProt Q5VWK5 22-629)
T2 construct: range 22-629; Stably expressed in HEK293 cells; also called hIL-23R; human IL-23R; not shown: Nanoluc protein (N1371, Promega) at the N-terminus, after a secretion signal
T2 sequence (looked up): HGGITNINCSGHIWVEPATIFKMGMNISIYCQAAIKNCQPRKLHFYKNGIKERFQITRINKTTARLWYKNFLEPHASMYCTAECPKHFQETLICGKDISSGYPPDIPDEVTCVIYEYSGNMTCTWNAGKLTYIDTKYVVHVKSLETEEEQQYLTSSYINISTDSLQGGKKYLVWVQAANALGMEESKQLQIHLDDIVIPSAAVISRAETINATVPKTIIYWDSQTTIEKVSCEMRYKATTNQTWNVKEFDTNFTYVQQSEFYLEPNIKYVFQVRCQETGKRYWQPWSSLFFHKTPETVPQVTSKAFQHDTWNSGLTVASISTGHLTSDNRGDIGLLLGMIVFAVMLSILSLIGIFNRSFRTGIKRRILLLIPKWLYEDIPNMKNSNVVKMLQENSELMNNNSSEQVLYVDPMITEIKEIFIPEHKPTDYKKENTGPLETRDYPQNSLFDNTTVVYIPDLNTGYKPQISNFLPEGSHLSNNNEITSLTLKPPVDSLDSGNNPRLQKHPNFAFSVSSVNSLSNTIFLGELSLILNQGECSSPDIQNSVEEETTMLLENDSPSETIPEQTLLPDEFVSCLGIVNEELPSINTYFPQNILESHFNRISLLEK


Assays:
[1] = biological target: human IL-23R endogenously expressed on DB cells (human) (UniProt Q5VWK5); test: cell-based or functional assay
[2] = biological target: T1, human IL-23R endogenously expressed on …; test: cell-based or functional assay
[3] = biological target: T2, Nluc-IL23R fusion protein; test: BRET competition vs TAMRA-labelled peptide, Nluc-IL23R membranes
[4] = biological target: T2, Nluc-IL23R fusion protein; test: as above; remark: listed apart in the source
[5] = biological target: T2, Nluc-IL23R fusion protein; test: BRET competition vs TAMRA-labelled peptide, Nluc-IL23R membranes; Ki by Cheng-Prusoff

Molecule | hIL-23 (pSTAT3) antagonist % inhibition [2] [%] | hIL-23 (pSTAT3) antagonist IC50 [2] [nM] | % displacement [3] [%] | IC50 [3] [nM] | further results
human IL-23 (from UniProt Q9NPF7 20-189; P29460 23-328) (ligand) | – | – | – | – | EC80 of hIL-23 (phospho-STAT3 in DB cells) [1]: 1.7 nM
[dOrn]TVWQE[AEF][2Nal][αMeL][Aad][Dab][3Pal]-NH2 (lactam 1-10, N-6; SMILES CC(C)C[C@]1(C)NC(=O)[C@H](Cc2ccc3ccccc3c2)NC(=O)[C@H](Cc2ccc(OCCN)cc2)NC(=O)[C@@H]2CCC(=O)N[C@H](CCCNC(=O)CCC[C@@H](C(=O)N[C@@H](CCN)C(=O)N[C@@H](Cc3cccnc3)C(N)=O)NC1=O)C(=O)N[C@@H]([C@@H](C)O)C(=O)N[C@@H](C(C)C)C(=O)N[C@@H](Cc1c[nH]c3ccccc13)C(=O)N[C@@H](CCC(N)=O)C(=O)N2) [Compound 6] | 104 | 0.22 | 104 | – | –
[dDab]TVWQD[AEF][2Nal][αMeL][2‑Amino‑6‑carboxyhexanoyl][Dab][3Pal]-NH2 (lactam 1-10, N-6) [Compound 9] | – | – | 103 | – | –
KSVWQE[AEF][2Nal]GE-{NH(4-(3-pyridyl)butyl)} (lactam 1-10, N-6; SMILES CC(C)[C@@H]1NC(=O)[C@H](CO)NC(=O)[C@@H]2CCCCNC(=O)CC[C@@H](C(=O)NCCCCc3cccnc3)NC(=O)CNC(=O)[C@H](Cc3ccc4ccccc4c3)NC(=O)[C@H](Cc3ccc(OCCN)cc3)NC(=O)[C@H](CCC(=O)N2)NC(=O)[C@H](CCC(N)=O)NC(=O)[C@H](Cc2c[nH]c3ccccc23)NC1=O) [Compound 31] | – | – | 98 | 49 | –
[dDab]TVWQE[AEF][2Nal][αMeL][2‑Amino‑6‑carboxyhexanoyl][Dab][3Pal]-NH2 (lactam 1-10, N-6) [Compound 7] | 99 | 0.19 | 104 | – | –
[dDab]TWQD[AEF][2Nal][αMeL][2‑Amino‑6‑carboxyhexanoyl][Dab][3Pal]-NH2 (lactam 1-9, N-5) [Compound 15] | – | – | 105 | 4.9 | –
KTVWQE[Phe(4-Me)][2Nal][αMeL][γDab](6‑(3-pyridyl)hexanoyl) (lactam 1-C, N-6; also: iso-Dab joined to preceding residue via its side-chain amine) [Compound 25] | – | – | 91 | 840 | –
KTVWQE[Phe(4-Me)][2Nal][αMeL][γDab](Propanoyl(3-(3-pyridyl))) (lactam 1-C, N-6; also: iso-Dab joined to preceding residue via its side-chain amine) [Compound 24] | 99 | 100 | 96 | 280 | –

More lines, main results first:

hIL-23 (pSTAT3) antagonist % inhibition [2] [%] | hIL-23 (pSTAT3) antagonist IC50 [2] [nM] | % displacement [3] [%] | IC50 [3] [nM] | Molecule | further results
– | – | 97 | 14 | EWQEXXXXXX ([iso-Glu](1c)^‡(6c)^†WQE(6c)[Y(2-aminoethoxy)][2-Nal][2-Me-Leu][Dab](1c)[Dab][3-(3-Pyridyl)-Ala]-[NHMe]; (1c) [2,11] lactam; (6c) [2,7] lactam; ^† alpha-amine in bridge; ^‡ alpha-carboxylic acid in bridge) [Compound 107] | –
98 | 42 | – | – | [4‑Aminomethyl‑phenylacetyl]SEW[Q(pyrrolidin)][Dab][AEF][2Nal][αMeL]E[Dab]-NH2 (lactam N-10; bridge 3-6; also: (2c) bridge type not defined) [Ref 146] | % displacement [4]: 105%; IC50 [4]: 1.2 nM; Ki [5]: 1.01 nM
– | – | 100 | – | ETWQE[AEF][2Nal][αMeL][Orn][Dab][3Pal]-NHMe (lactam 1-9, N-5) [Compound 40] | –
99 | 13 | 102 | – | XQTWQCXWXENG ([Ac]-[Abu](16i)QTWQC(16i)[Y(2-aminoethoxy)]W[2-Me-Lys]ENG-[NH2]; (16i) [2,7] thioether bridge (Abu and Cys form a cystathionine)) [Compound C] | –
– | – | 99 | – | KIVWQE[AEF][2Nal][αMeL][β3hE][3Pal]-NHMe (lactam 1-10, N-6, The partner of the (1c) bridge is printed as (cyclo1)) [Compound 61] | –
– | – | 99 | 0.076 | EIVWQEXXXXXX (E(1c)(6c)^†IVWQE(6c)[Y(2-aminoethoxy)][2-Nal][2-Me-Leu][K(Me)](1c)[Dab][3-(3-Pyridyl)-Ala]-[NHMe]; (1c) [2,11] lactam; (6c) [2,7] lactam; ^† alpha-amine in bridge) [Compound 74] | –
